Results from doi:10.1101/2020.10.20.346890 (bioRxiv, 2020).
Where “and” joins values, the source holds several entries; their conditions need not be identical. Equal values may be shown once.

Experiments:
[1] = biological target: the molecule itself; test: cross-linking
[2] = biological target: the molecule itself; test: SEC

B1: LoodHU-B (loop-deleted HU-B) (other)
chain: MNKSQLIDKIAAGADISKAAAGRALDAIIASVTESLKEGDDVALVGFGTFASGGGGSGGGGSKVPSFRAGKALKDAVN
stoichiometry N [1]: 4 | stoichiometry N [2]: 2

B2: LoodLysrHU-B (loop-deleted and lysine-replaced HU-B) (other)
chain: MNKSQLIDKIAAGADISKAAAGRALDAIIASVTESLKEGDDVALVGFGTFASGGGGSGGGGSKVPSFRAGAALADAVN
stoichiometry N [1]: 2 and 4

B3: HU-B wild type (natural protein)
chain: MNKSQLIDKIAAGADISKAAAGRALDAIIASVTESLKEGDDVALVGFGTFAVKERAARTGRNPQTGKEITIAAAKVPSFRAGKALKDAVN
stoichiometry N [1]: 4 and 3 and 6 | stoichiometry N [2]: 2

B4: LysrHU-B (lysine-replaced HU-B) (other)
chain: MNKSQLIDKIAAGADISKAAAGRALDAIIASVTESLKEGDDVALVGFGTFAVKERAARTGRNPQTGKEITIAAAKVPSFRAGAALADAVN
stoichiometry N [1]: 2 and 4
